In PMC8346945, “Evaluation of efficacy- versus affinity-driven agonism with biased GLP-1R ligands P5 and exendin-F1” (Biochemical Pharmacology, 2021):

Target: SNAP-GLP-1R (glucagon-like peptide-1 receptor with an N-terminal SNAP-tag), stably expressed in HEK293 cells (UniProt P43220)
Sequence of UniProt P43220 (P43220 24-463): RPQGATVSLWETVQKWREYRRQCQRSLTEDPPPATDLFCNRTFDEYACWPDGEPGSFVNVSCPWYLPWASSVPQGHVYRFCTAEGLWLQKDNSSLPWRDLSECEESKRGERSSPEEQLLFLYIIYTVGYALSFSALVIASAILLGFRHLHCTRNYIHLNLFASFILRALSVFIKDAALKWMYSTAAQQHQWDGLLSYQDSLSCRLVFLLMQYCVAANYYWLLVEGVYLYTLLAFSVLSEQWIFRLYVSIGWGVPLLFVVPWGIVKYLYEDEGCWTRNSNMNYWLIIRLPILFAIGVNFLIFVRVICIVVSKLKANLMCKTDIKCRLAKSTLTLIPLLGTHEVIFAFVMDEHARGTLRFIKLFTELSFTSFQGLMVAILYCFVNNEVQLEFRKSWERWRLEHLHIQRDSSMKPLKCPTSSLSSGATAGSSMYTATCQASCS

Substance: Exendin-4 (from UniProt P26349 48-87) (peptide)
- cAMP production in HEK293-SNAP-GLP-1R cells, 30-min stimulation, pEC50: 9.9 pEC50 (M)
